Measured values: the DeepSol protein solubility set

Test: soluble on expression in E. coli; label from the status in PepcDB or PDB records

Sequence	soluble on expression in E. coli
MGSDKIHHHHHHMLTRTHEAIPEIMYRIGDLADETGLPCYIVGGYVRDLIMQRPCTDIDIMVIGEPVPFAHALAEKLGGRNFVLFERFRTAQLELDDPKAGTFKLEIVGARKESYNPESRKPITSIGTLEDDLSRRDFTINALALRLNRKERGEVVDLFDGQRHIREKLLKTPLDPEQTFSDDPLRMMRAARFACQLDFQLDEATLTAMSTMSSRIQIVSRERVSHEFFKIMEARKPSIGLKILYSTGLLKEIIPELTVMAGIEQVDGLGHKDTLFHTFQVVDNLAEHSDKLWLRVSALFHDIAKPVTKRFHPGSGWTFHGHEAVGVKIVARIFRAMKWPLEPMEYVQKMVRLHHRPIPLSKEEITDSAVRRLMFDAGPDLDDLMTLCRADVTSKNPRKVQRIMKNFSNVEAKIAEVGEKDLLAKWRPPVSGTDIMELLNLPQGRTVGIIKSRMENAIIDGDIPYDRQAALDYIQQVYREMQEKGEA	not soluble
MGSDKIHHHHHHMLTSGLYQSKNQCCGCELCSCVCPKNLIRMQPDDEGFLYPYIETDEGCVHCNKCIKICPMKSSNRNDIVLKASFGGQTRDIDGTRYSSSGGYATAISKQFILEKGVVVGVRYSSDFSKSEYAIAETIEELEQFRTSKYIQAEKGGIYQTIRNIKRKKILFIGLPCEVSALYNYWGRNTDNLYSISLVCHGPTTPKVQNLFASKLKENNNSQIKYFSVRYKESGWKPYYIYADFENGKHHQELFKGSSYEIAFQYLKRPSCSSCRYKLGDQEFGLVSDLTLGDFHAVEKNMLQYSPWGGVSQASVQSEKGEYLIDLARRQCNVEFIPEKYITKYNYAFHHPVAQKTGRESFKRILLREGLDCAAKSLLVQIPTCYINAKRRIISFLYNVKSYLISK	not soluble
MGSDKIHHHHHHMLVQGFEEDLAFLGWIALTLGSNPLVPYVPTRPELIPKILELLDLKEDDVFYDLGCGDGRVVIEAVKKTRVKKAVCVETRDDLVKEARKKAEEEGVSDRIEFINNDFFKTPLKDATAVYMYLLTSVNESLKPKLARELRDGTRIVTLDFPIPGWKPVKVETATTGWQRSLYLYVKGVSDRA	not soluble
MGSDKIHHHHHHMLVVIPQVLNAEQVGAVRERLEHAGEAWVDGRVTAGYSGAPVKFNQQIDERSDVALECQRLILGMLERNPRFISAALPNIVYPPMFNRYSEGMTFGAHVDGSVRIHPHDGRKLRTDISATLFLSPHDSYDGGELQVQDTYGMHSVKLDAGDMVVYPATSLHQVTPITRGTRVASFFWIQSLIRDDTQRSLLFDMDNAIQRLNQTGADEEARRTLVGCYHNLLRQWSET	not soluble
MGSDKIHHHHHHMLYVTGITGHSGQWFVKRLISEGYKGRIRCIVLPESDTDFLNKSGLDIDIVSGNLNDQEFLTSTMVGCSTVLHIASIDFSRNVVKAALDNNLDWAILVHTTGRYSKYKSASAEYIEIEEYVLKFRNRMGITVLRPTMIYGSSRDRNMYKLITFLHKIKFFPMFGEGENLMQPVHARDLGNAYYDVIVNRSTTFNKGYNLPGKRPLTYMELVRTVSDTLGRKNVIIKIPLWFSILAARVYNALDKNAIISVEQVLRMQEDKAFDYEDAVRDFSYSPVSFEDGIVEEVNEYLARYNSSRTKQR	not soluble
MGSDKIHHHHHHMMAMITDPDDFFTKGCGRCARFDTPDCSTRPWIDGLNALRRICFSMGLEETAKWAHPCYMHAGRNIALLGAFRSDFLISFLNAGLLVDKAGVLKTPGPNSQTPSVIRFTTVAEVEALEPTIRAYLRQLMDHAVAGTQPPKMAREIDLPDELVDALDADPVLAEAYHALTPGRQRSYLFALSQAKQSATRVARIEKFRDKIIAGKGALER	not soluble
MGSDKIHHHHHHMMCFSCRVTSDAKVVFLDVIPTPQDIISDFSYICLLLTIKFEYMENISRRTAIKTFLAGGVALATTGIEAAAAAKKKTDVKEPLKGNVRHSVSKWCFGDYKLDEFCEICKHIGIESVELLDPVDWPIVQKHGLTVAMAQGAGLGIDRGFNDPALHDELVASYEKVIPMVADAGLTNLICFSGRRNGVTDLQGWENCEKGLKRLIPLAEKHKVVLTMELLNSVGHKDYLCDHTVWGAELCRRIGSPNFKLLYDIYHMQIMEGNIIENIRKYHPYFSHVHTGGSPGRAEIDETQELYYPAIIKALMETGYKGFVGQEFVPAQEDKIASLEKCIRICDV	not soluble
MGSDKIHHHHHHMMDKEIENGSVNVDLLELEKFNQLAHRWWDPNSEFKPLHEINPLRLGYIDRHARLAGKDVLDVGCGGGILSESMAESGAQVTGIDLGDKALKVAKLHLLESGNKVNYRKSSVEALAAEQPHHYDVVTCMEMLEHVPDPVSTVRACAELAKPGGWVFFSTINRNPKSYLFAVIGAEYVLNLLPRGTHDYAKFIKPSELGRMAREAGLDVQEVIGMSYNPITKVYSLGQDTDVNYIMAFRA	not soluble
MGSDKIHHHHHHMMDMLIAHISDTHITNEVAFKSYAYDLIVNEINTKPFDLVVHTGDVTNNGLREEYEHASYLIKKIEKPLVVVPGNHDARNVGYELFEKYIGPLYGVYEFDNGVIIWLDSTIPDLSDGRVGGYKFKWLKEKLEAYSHKKIKIVAAHHHLVPLPDTGRERNVLFNAGDVLDLLLTHEVTLYMCGHKHVPNVYRVEDLVVDNAGCASCRKTRKGDVNSYNIVKITDKGVKVVIRRLTGDEESKEHNPIRPKIFIPRGRRLLRIVQISESNVSDRVYFRKRTLENAIKAINEKYKPDIVIHCGDVVEKGIERYYEKAMEYYEKVKGEKIIVPGHNDISYLGYELFREYFGEPEVLELGDFVFIPILSAQYETQIGVVGRTGQKMLSRMLEEFREKFRIVIMHHNLVPVPGVKEIGYLEDAGNVLKIITENETELTLTGHGGNTSAVKVEKSPIINAGSISWELHRNPFGNSFNIIDIYEDMVVAFEIQATWGSRKVLGMWKIKSEIPWL	not soluble
MGSDKIHHHHHHMMFQEQIDLLQQKGLYRSLKSVGYIDRQYIEVENKRCTNYTSNDYLGLGQIAFDKDDFERFMRKYSYHLSSSRLISGSSTAYEEIETMLAGWLGYSACTILNSGYDANLALFNIFKNTNCVVFSDQENHASIIDGIKLSGLEKVIYKHLDIADLEKRLEKYPNQNIPKIIISDSVFSTNGDVVDIGQLVSLKHKYNATLILDVSHSFGIENYSNYQGVDILTSSLSKACGAYGGVILSSNDVKDMLINHGRPLIYSSSLPIYNLYFIKRNIEKLINADDRRTKLNSLSKYFNQKLKALNVNYNSSNSPIKFIEFDDIEAAENIHQTLLKHHVFTSYLRYPTVTKPMLRISLSYFHTEQDIDRLFEILHQED	not soluble
MGSDKIHHHHHHMMIKVFPKLRKQIWGSYRLGEMFGSNEKIGEVWLLSGHPLFITEAEGGLDLNEDMEKLIGKKLPRFPLLVKLISAEDWLSVQVHPNDDEAQELENEPWGKTEAWYFVEKGQIAIGEDPEKVKRALEDNSWDEALKKVEIEPGTFVFLPAGTVHALGPGGLLVEVQQASDLTYRVYDWGRGRELHIEKAFKVMKERKVEDLIVENFENFECEYFRIEKLERGKLEGFCAIVILENGVLDNRQVSPFETFIVPKGEKAELRATALVMRIGKFFEQWGDKK	not soluble
MGSDKIHHHHHHMMNATPWLTVSRGTAPLLVSIPHTGIDLAGLEPRLVSPWLGRRDCDWWIDKLYDFANDLGATVVHTAISRTVIDVNRDPTGVSLYPGQTTTTLCPTDTFDGDPLYRMGEEPTPSEIDQRRETYFKPYHAALQAEIDRLRGMHEKIVLYDCHSIRSVLPRLFEGTLPVFNLGTNDGKSTDPVLQDKVAAILAATGETWVVNGRFKGGSITRGFGQPQNGVHALQMELSNRGYMREPSEKGSPENWPVPYDPTYAAPIRATLKTILETAIDWARR	not soluble
MGSDKIHHHHHHMMPELKSALYAGKVMHQRLKPRRHRLSYRIFFLLLDLDEIDAMSKRLRLLSHNRFNLFGFADADHGDGSGGSLKAYVEDMLKTAGIETDAGPIRLLSMPRMLGYAFNPISIYFCHSRQGDLVAILYEVNNTFGQRHSYLIPVGERHDETVRQHCDKRFYVSPFMAMGLNYRFRIGLPGENVAIHITASDDQGPLMVASFAGKRRALSDASLLRAFISYPLLTLKVTAGIHWEALRLWAKGIRLQERPAPPHNSITHVAMHGRLRRKAEPDVI	not soluble
MGSDKIHHHHHHMMQALKIDEEIWQMFPEARFEVLVVKGINNQSKADEYYQELLDRAIEKSQKYIANDVFRDNPVVSEWRTAFTKFKKKKGARASIEALLKRVSQGKSLSPINPLVDIYNSISLEYGVPCGGEDLQKMDGTMHLGVAKGGESFRPLGSDEDEPALPGEVIYYDATGAICRCFNWREAQRTMLTEDTTDAVMVIEAINADQAQRAKSAIEKLKELVESKLNATGEHFTLQAQ	not soluble
MGSDKIHHHHHHMMQSAAINRRSFVKAAGLGFLATLTPRSLMALERADAVYASGIRAADGSFAIATVTERGEIVDQVALPARAHGIAFSASTGKTVAFARRPGTYAMIFDPWNKSEPIVISSREDRHFYGHGAFSPDGRLLYASENDFDGNRGMIGLYDATDRFTRIGEFETYGIGPHDMTVSDDGRLLIVANGGIETHPDFGRTKLNLGEMQPSLALIDAATGALVEKHVLPAEWAELSTRHVDLDGAGRIWFACQYEGHRKDLPPLVGHFAKGEDLSFIDLPEETTRRLANYVGAIAVNRSEGLVGITSPKGGASVTIDARTGKMLAETSVPDAAGIAPARNGFAVSSYDGDFLSTRSDVAWDQHIVRI	not soluble
MGSDKIHHHHHHMMRDTPLLHRDDPAKDPLVGHIKVTREDWVNTARDVLVNSGVAQVKIATLAGRLDVSRSSFYWYFQNRDELLSALLQDWQTRNTRSITDHCARPSRSIAQALCNFFRCFVDTRQFDPGLDFAIREWARRNEDVRDAIDAADTARLDAVRAMFDRHDYAPEDADARARILYFMQLGYHALDLREDMETRMSRVSAYVLGFTGISPQNTDIEEFLDYVGDLAPHGISGASQRA	not soluble
MGSDKIHHHHHHMMSTIYRHLSTARPALTKYATNAAVKSTTASSEASTLGALQYALSLDEPSHSWTKSQLKEIYHTPLLELTHAAQLQHRKWHDPTKVQLCTLMNIKSGGCSEDCKYCAQSSRNDTGLKAEKMVKVDEVIKEAEEAKRNGSTRFCLGAAWRDMKGRKSAMKRIQEMVTKVNDMGLETCVTLGMVDQDQAKQLKDAGLTAYNHNIDTSREHYSKVITTRTYDDRLQTIKNVQESGIKACTGGILGLGESEDDHIGFIYTLSNMSPHPESLPINRLVAIKGTPMAEELADPKSKKLQFDEILRTIATARIVMPKAIIRLAAGRYTMKETEQFVCFMAGCNSIFTGKKMLTTMCNGWDEDKAMLAKWGLQPMEAFKYDRS	not soluble
MGSDKIHHHHHHMNAIQCETRTYEREYNTHDHSYGQMLFALHGAMEIQTPVYDTFQLEANFGLYLPPHVNHRFRAVARNEFIVVDIPARFLGDAVTTEQHVALDETWGALCHLFRGEAYQPASSQSLRPLVDYLTSKLAKKTLPASIHYMKQHFSEPLSLETLAAIEHYHPAYYSSWFKGYTGMSPSEYLQKLRVKAAKRLLGETTWSVARISIEVGYTHPSGLVRAFTKVEGMTPSAYRNTLH	not soluble
MGSDKIHHHHHHMNDDIYDEMVRERGREYFLKNMVKYCVKRGNTLHGTVYGSDKYITKVDLKTKTGICTCPYQYNCKHAYALLESYKSGKYVDGDELFLNFSKLDKLEILKIFESIIEKHNLWDEFITEDKTLLDTAKNMLELTKIEKKNVFTFTSFLRNQFLKNAGNEELLLIIPDVIKYIQERKKLEEILFLIVDELFERGKTDKDTLKKLIELSRKYRELWMVKDNILDYEYFELLEY	not soluble
MGSDKIHHHHHHMNDYLDDYEFNNLDFYRKNHGLQLYYNWSGEICWQETPDKPQEKLFSIIGMNATKVFLKPDPEHGEVGYRINRELGLFCDPDTQEILHSWKSPTASQPVPVVHIANRIVQGSVKPKKFVIPKGKGYITSVMEIPLEYPHPLAGDSKYLDYCPGEKFKGVEYFISNTCRPDATEVPPAKWARDCPWMPWMKLGYAHPAKLRFETTIFRVDSFEQLHPSLVNLVREKVPIYEFTPTESDEPNVTSIQYFKKNFESYLRGDIFPLEERY	not soluble
